Laboratory results from the DeepSol protein solubility set.

Assay: soluble on expression in E. coli; label from the status in PepcDB or PDB records

Sequence | soluble on expression in E. coli
MGSDKIHHHHHHMLEGEFLSVAELKDLTLSLASKFLNNLLASKLLVSKQLFIDRKKELGLLEERLKSGKAQFIVIYGRRRVGKTALILEFLRRHGGLYLLARETSEIENLERFSLRLAEYFNDSFLKKNPLRSLDAFFEYLSTKAEKPFIIAIDEFPYLVKGNKALPSILQEYWEMKLSKKKIFLIVSGSSVSMTERLLGYKSPLYGRRTAQLKLKPLDFFNAREFLPKYSLEDFVRVYGILGGTPAYLLEFSDEKSLEENLKSYFRVDSLLYGDALFILREELDEPRNYFAIMEAIARGNTTLGEIVNETGLERATVGKYLSVLIDLDLVRREVPITASRKSRKGRYYIADNYFAFWFRYVYPNADLIESGNGELLVDTVMDDIDHYTGEVFEGVAKEFLLRLNKSERLPFRFSRVGRWWYKNEEIDLVALNEREKKVLFIEVKWKDLSKREARGILKDLKRKAKLVGLDEWGKHYGLVAKSVRGKDEIKEEGWLAWDLEDIHRMAF | not soluble
MSLEGYSVLVLERHYRAGGYAHSFRRRKFIFDSAVRIAAGAMDGGLLEELLQEAGVSQDVEFLHLEDIYTAYYPNRKITVKGSVEGLIEAYCEEFPHECHNIRALVQEMEKLYEVTLMLLHSGDPLKVLSNPLMLKYRDKSFHDLTSSFLQDPQAIHSFAALWAYYGTPPTQGSAMFFAYAIMSYFKEDIYYAKGSFQSLADAFVKRIESLGGEVCLRNEVQRVEVEDRQIKGVHLQTGEYVEAEKVVCNGDFLKLVQHLVGEEHFPARYLKRISKLKPSISAFEVFLGVDLPLEKQGLSHETFIYNDYDYDLFMEKHQSLGEIGASGLSGLAISIPSLVDSSLAPEGMHTAILTTLVPYDIGCDWKEKKEDYQDQLIKMAERAIPNLGRHAVHVESGTPLTMERYTNNSFGSIYGWEQTKNQMTGRPQHETPIKGLYLSGQWTDPGGGIVSAILSGYKLRKKIMKEQVVMEGHHHHHH | not soluble
MHDNTIKSISKDYFDYLQTESKFIPLENETIEFYSPIVDYFGDSISVNISFSGDRYKLTDHGETLWNMEQLGIDLTSNKKQKKYQLLNNIVQNYSLVIENKHINFYTNRINLSQAIHDYVLAISEISYLGILKKENIKSLFKDEVMQYFLSNRKIYPNIFPEFKVEGKSKLIHSFEAVFPGEATEYVKTIKRIDKNNAKNVLFDWNDVEIHRNKNFDSNARLNIITEQQDDISEAVSTMLSQYNVEVFSFENKKQLEEKFSNV | not soluble
MGSDKIHHHHHHMEAYQFIKDYKAHDPYRKSFIQLAKRIFNIDFAPWYEQGFWNDNYICYSYVDKHEVIANVSVNKMELIINGAKQEAIQIGTVMTAPEYRRQGLAKQLLQKALDDYDSAYDLYFLAANQEAIPLYETCGFQLIEENCYEIDMAGYTLLDKPLRRADVSPEAMVEVKKGSCPLSTVLSAQGDEHILMFYYTAGFRDFIYQVNKDVHVMFQLEGDVLHLYDIFSPAKVNVEQLVEQIAPLATKTVVCHFTPDHSVKQLTAKIDSTSSWMVRTTTKGFPPLARFPKISQA | not soluble
MKALALFSGGLDSLLSMKLIQEMGIEVVALHFNIGFGANRDKLEYLQNATAQIGVELRVLDIQEQFFNEVLFNPVHGYGKYFNPCIDCHANMFRHALRLLEGEGASFIISGEVIGQRPKSQRREALHQVENLTQTKGLILRPLSAKLLPPTLAEERGWVDREKLLDIHGRGRDRQLAMAKSYGWVYFE | not soluble
SSWWTHVEMGPPDPILGVTEAFKRDTNSKKMNLGVGAYRDDNGKPYVLPSVRKAEAQIAAKNLDKEYLPIGGLAEFCKASAELALGENNEVLKSGRFVTVQTISGTGALRVGASFLQRFFKFSRDVFLPKPSWGNHTPIFRDAGMQLQGYRYYDPKTCGFDFSGALEDISKIPEQSVLLLHACAHNPTGVDPRPEQWKEIASVVKKKNLFAFFDMAYQGFASGDGDKDAWAVRHFIEQGINVCLCQSYAKNMGLYGERVGAFTVVCKDAEEAKRVESQLKILIRPLYSNPPLNGARIAATILTSPDLRKQWLQEVKGMADRIISMRTQLVSNLKKEGSSHNWQHITDQIGMFCFTGLKPEQVERLTKEFSVYMTKDGRISVAGVTSGNVGYLAHAIHQVTK | soluble
MSDGQHRAADAVVVGAGLAGLACALDLCRAGWRVALLEASDGVGGRMRTDRRDGFLLDRGFQVFNTSYPQVKRRMELKSLRLRPFTAGVVAHTSNGPVRLADPTREPRAAGTLLPGRALPARDLAALAALTARDAVLPVAVTRRRRDRPTSAALSRVGLSDAAIAGILRPFLSGVFLEDRLETSARFFHLVWRSMVRGSLCLPAEGIGAVPAQLADGLPDGVLRLGTPVAEITDAGVLLGDGGEVPARVVVVATDPATAAGLLPDLTVPDTRTVTTYYHATDSPPTAEPILMVDSTGAILNTCVLSQVAPTYAPPGTGLVSTSVLGTDPPGRAQAVLRRLAELYGTDTSGWEQVAARTVDGALPAMLPPWPLSRTTRIGPGRYVCGDHRATGSVQGALASGTRAAREVRADREPQRLEHHHHHH | soluble
MTIYPKLILDALATVRYPGTGKNLVEAGMVEDNIRIEGMKVSFSLIFEKPTDPFMKSVIKAAETAILTHVGKEVEIVGNISVKTVQAARPEVGKLLPHVKNIIGISSGKGGVGKSTVSANLAVALAKLGYKVGLLDADVFGPSMPKMFQVEDARPYAEKIDGRDMIIPVEKYGVKLLSIGFFVDPDQATLWRGGMASNALKQLIGDAAWGDLDYFLIDLPPGTSDIHLTVVQTLALTGAVVVSTPQAVALADARKGINMFTNDKVNVPILGLVENMAWFTPAELPENKYYLFGKEGAKKLAEEMNVPLLGQIPIVQSICEGGDKGTPVALDENTVTGRAFLALAASVVRQVDKRNVEMAPTKIVELHKLEHHHHHH | soluble
MKKVQTPLFQGITENEWNEMQNCSCMRQQSFEKNELIFRMGESVREIGIVLTGSVNIENVDLWGNKSLLSNISAGQVFAETYAFCQEPLMVNAVAAEYTNLLFLNLETLMQPRYKDTLWTDKIMQNLLRISIYKNLILSNRIFCTTPKTIRGRLLIYLSSQASKAESTVFQISFNRQELADYLNLDRSALSKELGKMRDEGILEFRKNQFVLHQLPE | not soluble
MRATEDHTIFDRGVGQRDQLQRLWTPYRMNYLAEAPVKRDPNSSASPAQPFTEIPQLSDEEGLVVARGKLVYAVLNLYPYNPGHLMVVPYRRVSELEDLTDLESAELMAFTQKAIRVIKNVSRPHGFNVGLNLGTSAGGSLAEHLHVHVVPRWGGDANFITIIGGSKLEHHHHHH | not soluble
MGSDKIHHHHHHMRLIGLTDLHNRIINFDKLLRYKPDAILISGDFTKCSFAKSANQNDSFEVITEQDTRIIDFLENLNNKIKVFIIPGNWENLDTIQKMNESGLNIDEKLVKFHDTIFIGLGGSNKTPICSPNEYSEDEIYERFIKILKNEKTDVKNNFILLSHVPPKDTMADRCEAGHVGSSAVRKIIEEFKPVLCACGHVHESRSIDKIGNTLIVNPSSTGFFIYDTKTKNLEIHDL | not soluble
DERVFEQELENGLRLFIIPKPGFQKTFVTYTTQFGSLDNQFKPLGQDQFVTVPDGVAHFLEHKLFEKEEEDLFTAFAEDNAQANAFTSFDRTSYLFSATDNIENNIKRLLTMVETPYFTKETVDKEKGIIAEEIKMYQEQPGYKLMFNTLRAMYQRHPIRVDIAGSVESIYDITKDDLYLCYETFYHPSNMVLFVVGDVNPEEICRIVKQHEDARNKVNQPKIER | not soluble
MKTLPVLPGQAASSRPSPVEIWQILLSRLLDQHYGLTLNDTPFADERVIEQHIEAGISLCDAVNFLVEKYALVRTDQPGFSACTRSQLINSIDILRARRATGLMTRDNYRTVNNITLGKYPEAK | soluble
SSAKAQVNPAICRYPLGMSGGQIPDEDITASSQWSESTAAKYGRLDSEEGDGAWCPEIPVEPDDLKEFLQIDLHTLHFITLVGTQGRHAGGHGIEFAPMYKINYSRDGTRWISWRNRHGKQVLDGNSNPYDIFLKDLEPPIVARFVRFIPVTDHSMNVCMRVELYGCVWLDGLVSYNAPAGQQFVLPGGSIIYLNDSVYDGAVGYSMTEGLGQLTDGVSGLDDFTQTHEYHVWPGYDYVGWRNESATNGYIEIMFEFDRIRNFTTMKVHCNNMFAKGVKIFKEVQCYFRSEASEWEPNAISFPLVLDDVNPSARFVTVPLHHRMASAIKCQYHFADTWMMFSEITFQSDAAM | not soluble
MEIFPAIDLKEGRCVRLYQGEFSKETVMNEDPVAQAIIFEKFGAKRLHIVDLDGAVAGESLNLSVIERICKAVRIPVQVGGGIRSLVAVEKLFSVGVDKVILGTAALYDKTFLEEAVLLYKEKIIVGIDAKNGFVATRGWLDVSEISYIDLAKQMEKIGVQTIVFTDISKDGTLAGPNIEQLELLQKSVAIRLIASGGVASIQDVKKLNDMNIYGVIIGKALYEKTIDLEEVVEVTKLC | not soluble
MEFVKGDQVEVCSKEDGFLGSYFGATVVSKTPEGSYYKIKYKNLVSDTDQSKRLVEVISADELRPMPPKSLHVLIRCGDKVDAFDKDGWWVGEVTAVRRNIYSVYFSTTDEELEYPLYSLRKHHEWVNGSWVRQ | soluble
MGSDKIHHHHHHMEFTSLWQEFARISEVEAIALGGSRATGNYDETSDYDLYIYCSSIPDEATRLTILKSFCSYIEIGNHFWELEDDCTLMSGQDIDILYRDINQIRDELVDVVERCIIQNAYTTCLWHNVLHSKILYDSDDKLKCIVNRFDINYPQKLKQTILSHHMNLLTGHLPSYDKQIIKAVMRKDIVSFNHRVTAFLETYFDLIFALNMLTHPGEKRMIAYAEQNAQSLPNHFQKNIERLIYGTTCHPYDIQDILNDILNELTPLLHDSIG | not soluble
MPKVEIAPSEIKIPDNVLKAKLGFGGAEEIPEEFRKTVNRAYEELLDAAKPVVLWRDFEVDGSLSFDDMRLTGELATKHLSGSKIITVFLATLGKKVDEKIEEYFRKGEDLLAFFIDGIASEMVEYALRKVDAELRMKRSNLEGSFRISPGYGDLPLSLNKKIAEIFKEEVDVNVIEDSYVLVPRKTITAFVGWREKNEKQT | not soluble
MAKDIRVLLYYLYTPIENAEQFAADHLAFCKSIGLKGRILVADEGINGTVSGDYETTQKYMDYVHSLPGMEELWFKIDEENEQAFKKMFVRYKKEIVHLGLEDNDFDNDINPLETTGAYLSPKEFKEALLDKDTVVLDTRNDYEYDLGHFRGAIRPDIRNFRELPQWVRDNKEKFMDKRVVVYCTGGVRCEKFSGWMVREGYKDVGQLHGGIATYGKDPEVQGELWDGKMYVFDERIAVDVNHVNPTIVGKDWFDGTPCERYVNCGNPFCNRRILTSEENEDKYLRGCSHECRVHPRNRYVSKNELTQAEVIERLAAIGESLDQAATVLEHHHHHH | soluble
MEEVTIKANLIFANGSTQTAEFQGTFEQATSEAYAYADTLKQDNGEWTVDVADQGYTLNIQFAG | soluble
MNSLIPPPTSEQQMNMFRLRDKMSLLNAEFLKVINGYFTEKNHYDFSGTMKSYMDHVAQLKQIYKVDDDVAADMTVPRRTENSSESSGETVAPRKIAKAVRKNGTPKNPLNSTVFAASSPAATVASVPKFGDISVITKETPAPLAKTAEPLVAPAAPATARKRAIRGGGPLGGAESVVFKSGEDGQAATSSVKIPATTIKFPEPTKDFWTKKSDAPAAPSNSGSLFAFLGKELFSIKKNPPIYQNFSGDKPKETPKFSGFSFGKKPAEPSEEPKAADSTPKLTFGSPKEADLPKPASSLFGASPSKPLVFGGSSADSTTSAPKPFSALSTAASLFGSSSASTTTTATQPLSFGSSSTGGSSLFSGFAGLAQKAMENQNQAKPEGSGEDDEGEYVPPKVETVENQEPDAVLSSKVSVFKFTGKEYTKLGVGMLHIKDNDGKFSVLIRAATATGTVWLNSLCNKAMKATVVDAKGDRIRLTCPSSSTEMATMMIRFGTADGAKKFTDKILEVAV | not soluble
